Experimental findings from paper doi:10.1101/2022.06.27.497840 (bioRxiv, 2022) are described below.

The target in this test is T1, MBP-Mlh1/MBP-Mlh2 complex (Saccharomyces cerevisiae (SK1), UniProt P38920;Q07980).
T1 sequence 1: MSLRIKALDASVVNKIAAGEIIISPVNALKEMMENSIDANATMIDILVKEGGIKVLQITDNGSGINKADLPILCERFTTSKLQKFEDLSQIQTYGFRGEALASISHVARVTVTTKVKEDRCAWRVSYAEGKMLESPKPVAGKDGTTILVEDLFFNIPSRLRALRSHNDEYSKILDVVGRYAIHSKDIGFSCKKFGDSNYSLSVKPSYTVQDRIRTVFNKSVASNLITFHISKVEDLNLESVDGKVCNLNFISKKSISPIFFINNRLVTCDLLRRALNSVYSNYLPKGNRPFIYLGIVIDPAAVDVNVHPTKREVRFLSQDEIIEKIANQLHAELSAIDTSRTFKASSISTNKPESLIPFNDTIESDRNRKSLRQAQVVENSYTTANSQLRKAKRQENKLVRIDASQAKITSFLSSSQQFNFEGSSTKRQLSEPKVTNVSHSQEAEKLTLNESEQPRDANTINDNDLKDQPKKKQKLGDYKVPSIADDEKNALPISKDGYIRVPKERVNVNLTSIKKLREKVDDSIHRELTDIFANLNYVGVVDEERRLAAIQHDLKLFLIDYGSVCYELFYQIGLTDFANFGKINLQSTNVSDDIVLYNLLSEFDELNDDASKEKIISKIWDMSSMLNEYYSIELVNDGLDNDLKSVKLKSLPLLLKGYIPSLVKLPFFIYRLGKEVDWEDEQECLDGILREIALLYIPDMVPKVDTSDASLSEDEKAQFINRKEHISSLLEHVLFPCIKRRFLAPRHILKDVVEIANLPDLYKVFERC
T1 sequence 2: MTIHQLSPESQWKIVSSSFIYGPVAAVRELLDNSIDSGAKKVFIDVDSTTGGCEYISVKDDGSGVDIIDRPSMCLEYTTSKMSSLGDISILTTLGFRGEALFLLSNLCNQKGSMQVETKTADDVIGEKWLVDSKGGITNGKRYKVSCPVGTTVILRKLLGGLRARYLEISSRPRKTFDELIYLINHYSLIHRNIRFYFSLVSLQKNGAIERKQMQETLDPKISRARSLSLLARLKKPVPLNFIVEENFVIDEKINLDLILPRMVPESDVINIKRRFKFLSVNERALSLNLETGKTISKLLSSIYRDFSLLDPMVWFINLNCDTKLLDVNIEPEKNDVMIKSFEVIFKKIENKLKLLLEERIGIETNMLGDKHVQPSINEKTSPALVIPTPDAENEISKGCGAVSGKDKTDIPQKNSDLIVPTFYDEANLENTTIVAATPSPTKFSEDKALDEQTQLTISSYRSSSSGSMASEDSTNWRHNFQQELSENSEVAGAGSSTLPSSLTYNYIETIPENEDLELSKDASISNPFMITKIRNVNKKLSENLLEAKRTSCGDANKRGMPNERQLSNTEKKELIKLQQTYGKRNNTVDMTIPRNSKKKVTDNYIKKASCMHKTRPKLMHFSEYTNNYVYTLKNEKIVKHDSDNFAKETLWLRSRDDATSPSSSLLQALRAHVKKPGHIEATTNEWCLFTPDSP
The test is described as follows: cross-linking.

B1: Top3/Rmi1 complex (as used in MST, XL-MS and D-loop assays) (complex)
chain 1: MKVLCVAEKNSIAKAVSQILGGGRSTSRDSGYMYVKNYDFMFSGFPFARNGANCEVTMTSVAGHLTGIDFSHDSHGWGKCAIQELFDAPLNEIMNNNQKKIASNIKREARNADYLMIWTDCDREGEYIGWEIWQEAKRGNRLIQNDQVYRAVFSHLERQHILNAARNPSRLDMKSVHAVGTRIEIDLRAGVTFTRLLTETLRNKLRNQATMTKDGAKHRGGNKNDSQVVSYGTCQFPTLGFVVDRFERIRNFVPEEFWYIQLVVENKDNGGTTTFQWDRGHLFDRLSVLTFYETCIETAGNVAQVVDLKSKPTTKYRPLPLTTVELQKNCARYLRLNAKQSLDAAEKLYQKGFISYPRTETDTFPHAMDLKSLVEKQAQLDQLAAGGRTAWASYAASLLQPENTSNNNKFKFPRSGSHDDKAHPPIHPIVSLGPEANVSPVERRVYEYVARHFLACCSEDAKGQSMTLVLDWAVERFSASGLVVLERNFLDVYPWARWETTKQLPRLEMNALVDIAKAEMKAGTTAPPKPMTESELILLMDTNGIGTDATIAEHIDKIQVRNYVRSEKVGKETYLQPTTLGVSLVHGFEAIGLEDSFAKPFQRREMEQDLKKICEGHASKTDVVKDIVEKYRKYWHKTNACKNTLLQVYDRVKASM
chain 2: MSFSSILSQDITDDITPPAYSATLGSREQIVFRAYQNEPWLAGTASNLILDKKLVIVDRELLFQVLMVENITKSKLTQIDDIKTKLDPKKQKVDRLRSGAQGNGAKKYEVITQVDMEDDGNVADNNCAKENNSNNNSSAAKNKAVFKLTLQSKSGDVFFAINSTPISWSSCMLGSKIVILPGTVFNRGVFILKDSQVIFLGGINRVWNENRDQKFCDYLESKLQRDKQLVNGGSKKRKAND
Take B1: the binding result was “binds”.
